Results on five variants are retold here after publication PMC5019376.

B1: TIR1 (wild type, epitope-tagged, expressed in Nicotiana) [Arabidopsis] / GST-IAA3 [Arabidopsis] (parent)
chain 1: MQKRIALSFPEEVLEHVFSFIQLDKDRNSVSLVCKSWYEIERWCRRKVFIGNCYAVSPATVIRRFPKVRSVELKGKPHFADFNLVPDGWGGYVYPWIEAMSSSYTWLEEIRLKRMVVTDDCLELIAKSFKNFKVLVLSSCEGFSTDGLAAIAATCRNLKELDLRESDVDDVSGHWLSHFPDTYTSLVSLNISCLASEVSFSALERLVTRCPNLKSLKLNRAVPLEKLATLLQRAPQLEELGTGGYTAEVRPDVYSGLSVALSGCKELRCLSGFWDAVPAYLPAVYSVCSRLTTLNLSYATVQSYDLVKLLCQCPKLQRLWVLDYIEDAGLEVLASTCKDLRELRVFPSEPFVMEPNVALTEQGLVSVSMGCPKLESVLYFCRQMTNAALITIARNRPNMTRFRLCIIEPKAPDYLTLEPLDIGFGAIVEHCKDLRRLSLSGLLTDKVFEYIGTYAKKMEMLSVAFAGDSDLGMHHVLSGCDSLRKLEIRDCPFGDKALLANASKLETMRSLWMSSCSVSFGACKLLGQKMPKLNVEVIDERGAPDSRPESCPVERVFIYRTVAGPRFDMPGFVWNMDQDSTMRFSRQIITTNGL
chain 2: MDEFVNLKETELRLGLPGTDNVCEAKERVSCCNNNNKRVLSTDTEKEIESSSRKTETSPPRKAQIVGWPPVRSYRKNNIQSKKNESEHEGQGIYVKVSMDGAPYLRKIDLSCYKGYSELLKALEVMFKFSVGEYFERDGYKGSDFVPTYEDKDGDWMLIGDVPWEMFICTCKRLRIMKGSEAKGLGCGV

Variants of B1 are the subject of the experiment. Briefly: pull-down (semi in vitro, GST-IAA3 with Nicotiana cell extracts, anti-HA blot). Particulars: 10 µM 2,4-D.
With chain 1 G142A, the ratio to parent was determined as 0.45.

In the case of chain 1 V117A, the ratio to parent was determined as 0.44.

Take chain 1 I151A: the ratio to parent came to 0.46.

Turning to chain 1 F143A, the ratio to parent amounted to 0.5.

chain 1 C140A: the ratio to parent turned out to be 0.62.
